Experimental data: patent US20070166317A1, “Microparticles” (priority 2003, published 2007)

Tests used:
LDL receptor [1] = molecular target: T1, LDL receptor (Homo sapiens, UniProt P01130); experiment: Effect of anti-LDL receptor antibody on cellular association of peptide modified latex, normal fluorescent microscopy, HFFF-2 cells; assay type: cell-based; conditions: 3 hours at 37° C., antibody 8 μg/mL, peptide on Sigma carboxylate modified latex, 0.15 μg latex/μL, FIG. 6
T1 construct: endogenous in cells; host or cells: HFFF-2 fibroblast cells (ECACC 86031405)
Procedure: (§1) Latex (50 to 100 μL) was added to PBS (890 to 945 μL) followed by peptide solution (5 to 10 μL) and the resultant 1 mL solution mixed. The material was left to stand at room temperature for 2 hours and then dialysed over night against 2 L of PBS in the dark at 4° C. The particles were then recovered stored at 4° C. in the dark and used without further treatment.
(§2) HFFF2 stock culture was grown in Dulbecco's modified Eagle's media supplemented with 10% v/v foetal bovine serum, glutamine (2 mM), fungizone (50 mg/ml) and pen-strep (0.1 mg/ml). Cells were seeded at 2 to 3×10^4 cell/cm^2 using 0.25% trypsin-EDTA and maintained in a humidified 5% CO2 atmosphere, at 37° C. and sub-cultured twice a week.
Prior (48 hr) to an experiment CHO or HFFF2 cells were plated at 2×10^4/cm^2 in an 8 well chamber slide, 0.7 cm^2 and 0.2 mL/chamber. One day before the experiment, media was replaced with a similar media but containing no lipids. On the date of the experiment, the cells for 4° C. incubation were chilled for 15 minutes prior to any additions. The wells were washed with 0.1 mL of phosphate buffered saline (PBS) and the synthetic LDL microparticle system, in media, added. The slides were then incubated for 1 or 3 hours at either 4° C. or 37° C. the latter in a humidified 5% CO2 atmosphere. […]

CHO cells = experiment: Cellular association of peptide modified latex microparticles, confocal microscopy, CHO cells; assay type: cell-based, Chinese Hamster; conditions: 3 hours at 37° C., 10 ng peptide/μg Sigma carboxylate modified latex, 0.15 μg latex/μL of media, FIG. 4
Procedure: as §1
CHO stock culture was grown in Ham's F12 media supplemented with 10% foetal bovine serum, glutamine (2 mM), fungizone (50 mg/ml) and pen-strep (0.1 mg/ml). Cells were seeded at 1 to 2×10^4 cell/cm^2 using 0.25% trypsin-EDTA and maintained in a humidified 5% CO2 atmosphere, at 37° C. and sub-cultured twice a week.
(§3) Prior (48 hr) to an experiment CHO or HFFF2 cells were plated at 2×10^4/cm^2 in an 8 well chamber slide, 0.7 cm^2 and 0.2 mL/chamber. One day before the experiment, media was replaced with a similar media but containing no lipids. On the day of the experiment, the cells for 4° C. incubation were chilled for 15 minutes prior to any additions. The wells were washed with 0.1 mL of phosphate buffered saline (PBS) and the synthetic LDL system in media added. The slides were then incubated for 1 or 3 hours at either 4° C. or 37° C. the latter in a humidified 5% CO2 atmosphere. […] The lens employed was ×20 PA with a numerical aperture of 0.75 and the data analysed using “Laser-sharp” software (Bio-Rad).

LDL receptor [2] = molecular target: T1, LDL receptor; experiment: Effect of anti-LDL receptor antibody on cellular association of peptide modified latex, confocal microscopy, HFFF-2 cells; assay type: cell-based; conditions: 3 hours at 37° C., antibody 8 μg/mL, peptide on Fluoresbrite latex, 0.15 μg latex/μL, FIG. 5
Procedure: as §1, §2, §3

T1 sequence (P01130 22-860): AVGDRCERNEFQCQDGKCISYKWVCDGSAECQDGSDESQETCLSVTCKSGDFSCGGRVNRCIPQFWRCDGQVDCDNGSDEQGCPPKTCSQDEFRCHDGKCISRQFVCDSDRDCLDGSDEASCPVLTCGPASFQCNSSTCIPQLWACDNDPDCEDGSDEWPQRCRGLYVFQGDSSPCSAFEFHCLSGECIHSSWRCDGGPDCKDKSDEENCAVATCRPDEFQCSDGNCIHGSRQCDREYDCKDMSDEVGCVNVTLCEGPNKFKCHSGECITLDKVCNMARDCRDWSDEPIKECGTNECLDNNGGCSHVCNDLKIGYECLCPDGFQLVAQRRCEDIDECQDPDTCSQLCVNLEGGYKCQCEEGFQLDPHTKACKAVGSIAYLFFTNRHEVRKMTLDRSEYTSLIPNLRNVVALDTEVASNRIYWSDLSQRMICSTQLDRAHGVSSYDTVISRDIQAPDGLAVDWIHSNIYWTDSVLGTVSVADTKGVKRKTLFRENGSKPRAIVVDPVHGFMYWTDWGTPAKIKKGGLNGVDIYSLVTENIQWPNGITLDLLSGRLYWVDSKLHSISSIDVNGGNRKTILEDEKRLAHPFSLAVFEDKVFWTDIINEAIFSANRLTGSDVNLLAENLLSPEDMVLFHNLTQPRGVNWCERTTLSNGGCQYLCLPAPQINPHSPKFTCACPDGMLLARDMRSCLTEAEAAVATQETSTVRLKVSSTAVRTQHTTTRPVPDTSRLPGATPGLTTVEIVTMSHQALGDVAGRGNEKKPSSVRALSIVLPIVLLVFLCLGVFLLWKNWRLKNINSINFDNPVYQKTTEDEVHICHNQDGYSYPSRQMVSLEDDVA

| Substance | reduction of cellular association by anti-LDL receptor antibody (normal fluorescent microscopy) (LDL receptor [1]) | cellular association of peptide modified latex (rank order between peptides, fluorescence) (CHO cells) | reduction of cellular association by anti-LDL receptor antibody (confocal microscopy) (LDL receptor [2]) |
| --- | --- | --- | --- |
| peptide 3: Retinoic Acid-Tyr-Lys-Leu-Glu-Gly-Thr-Thr-Arg-Leu-Thr-Arg-Lys-Arg-Gly-Leu-Lys-Leu-Ala-Thr-Ala-Leu-Ser-Cholesterol ({retinoic acid}-YKLEGTTRLTRKRGLKLATALS-cholesterol) | the reduction due to the presence of the antibody is clearly visible | increased cellular association for peptide 4 followed by peptide 3 and then peptide 1 |  |
| peptide 4: Pyrene Butyric Acid-Lys-Leu-Glu-Gly-Thr-Thr-Arg-Leu-Thr-Arg-Lys-Arg-Gly-Leu-Lys-Leu-Ala-Thr-Ala-Leu-Ser-Leu-Phe-Leu-Phe-Cholesterol ({pyrene butyric acid}-KLEGTTRLTRKRGLKLATALSLFLF-cholesterol) |  | increased cellular association for peptide 4 followed by peptide 3 and then peptide 1 | the reduction is not as great |
